Data taken from US20150037324A1.

Tests used:
[1] = target: Recombinant human GPR49-Fc ectodomain (human); assay: direct ELISA on coated GPR49-Fc, about 0.1-250 nM, A450; table without unit, nM from the axis [nM] Ab; control whose curve in FIG. 9G is flat (see non_binding), so the fitted value lies outside the range tested and carries no meaning
[2] = target: human GPR49 (G-Protein-coupled Receptor 49) on cells (human) (UniProt O75473); assay: cell-based or functional assay
Sequence of human GPR49 (G-Protein-coupled Receptor 49) on cells (human) (O75473 22-907 limits assumed): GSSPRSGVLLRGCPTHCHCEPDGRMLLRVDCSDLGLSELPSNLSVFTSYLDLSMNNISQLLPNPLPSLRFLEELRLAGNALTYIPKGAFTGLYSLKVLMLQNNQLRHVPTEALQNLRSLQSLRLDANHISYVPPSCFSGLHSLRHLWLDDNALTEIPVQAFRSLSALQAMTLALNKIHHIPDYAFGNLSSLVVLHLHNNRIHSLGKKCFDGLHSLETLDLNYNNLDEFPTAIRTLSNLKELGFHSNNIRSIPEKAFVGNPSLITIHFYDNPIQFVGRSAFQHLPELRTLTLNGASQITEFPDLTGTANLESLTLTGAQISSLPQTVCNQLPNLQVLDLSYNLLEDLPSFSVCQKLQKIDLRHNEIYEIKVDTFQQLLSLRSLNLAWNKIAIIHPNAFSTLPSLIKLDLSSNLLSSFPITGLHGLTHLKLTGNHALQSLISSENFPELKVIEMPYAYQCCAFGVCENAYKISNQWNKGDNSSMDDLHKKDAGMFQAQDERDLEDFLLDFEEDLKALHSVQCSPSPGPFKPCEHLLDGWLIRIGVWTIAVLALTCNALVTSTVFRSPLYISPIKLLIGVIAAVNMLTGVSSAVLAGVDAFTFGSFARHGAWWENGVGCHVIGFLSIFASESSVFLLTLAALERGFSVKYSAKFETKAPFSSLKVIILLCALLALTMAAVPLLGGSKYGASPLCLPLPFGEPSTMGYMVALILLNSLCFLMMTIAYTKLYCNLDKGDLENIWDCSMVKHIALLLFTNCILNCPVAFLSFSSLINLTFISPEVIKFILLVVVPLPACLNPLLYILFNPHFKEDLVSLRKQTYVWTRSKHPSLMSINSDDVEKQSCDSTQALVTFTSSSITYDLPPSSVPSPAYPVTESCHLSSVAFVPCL

Sequence of Recombinant human GPR49-Fc ectodomain (human) (chain, as listed by the source limits assumed, form in doubt): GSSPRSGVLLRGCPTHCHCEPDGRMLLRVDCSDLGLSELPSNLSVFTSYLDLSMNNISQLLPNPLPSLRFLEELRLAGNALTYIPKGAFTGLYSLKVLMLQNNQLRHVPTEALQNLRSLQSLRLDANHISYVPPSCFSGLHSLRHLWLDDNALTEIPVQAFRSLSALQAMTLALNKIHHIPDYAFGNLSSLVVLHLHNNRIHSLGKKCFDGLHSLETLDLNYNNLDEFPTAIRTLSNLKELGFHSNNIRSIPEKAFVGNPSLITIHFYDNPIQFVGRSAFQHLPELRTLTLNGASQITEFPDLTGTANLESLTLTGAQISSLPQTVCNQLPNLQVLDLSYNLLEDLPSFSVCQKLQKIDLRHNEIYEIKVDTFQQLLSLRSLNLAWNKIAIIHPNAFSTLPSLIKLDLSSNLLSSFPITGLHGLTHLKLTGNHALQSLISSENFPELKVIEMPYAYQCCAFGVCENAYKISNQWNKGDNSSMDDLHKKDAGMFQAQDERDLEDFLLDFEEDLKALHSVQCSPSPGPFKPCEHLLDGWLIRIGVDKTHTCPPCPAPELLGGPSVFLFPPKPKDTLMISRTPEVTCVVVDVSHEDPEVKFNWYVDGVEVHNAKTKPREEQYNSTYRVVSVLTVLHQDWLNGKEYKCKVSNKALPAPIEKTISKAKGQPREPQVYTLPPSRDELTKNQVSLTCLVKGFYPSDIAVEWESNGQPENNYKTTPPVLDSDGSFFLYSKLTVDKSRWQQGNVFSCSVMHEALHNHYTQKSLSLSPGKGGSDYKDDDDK

Substance | EC50 [1] [nM] | increase in proliferation, GPR49-3T3 clone 28 [2] [fold]
Ctrl (antibody) | 1580 | –
R-spondin-1 (ligand) | – | 4
